Reference: paper PMC3664666 (Science signaling, 2012)

B1: FhaA FHA domain Q461A (domain or fragment)
chain: PQGGGYAEPAGRDYDYGQSGAPDYGQPAPGGYSGYGQGGYGSAGTSVTLQLDDGSGRTYQLREGSNIIGRGADAQFRLPDTGVSRRHLEIRWDGQVALLADLNSTNGTTVNNAPVQEWQLADGDVIRLGHSEIIVR
B2: FhaA FHA domain R459A (domain or fragment)
chain: PQGGGYAEPAGRDYDYGQSGAPDYGQPAPGGYSGYGQGGYGSAGTSVTLQLDDGSGRTYQLREGSNIIGAGQDAQFRLPDTGVSRRHLEIRWDGQVALLADLNSTNGTTVNNAPVQEWQLADGDVIRLGHSEIIVR
B3: FhaA FHA domain R474A (domain or fragment)
chain: PQGGGYAEPAGRDYDYGQSGAPDYGQPAPGGYSGYGQGGYGSAGTSVTLQLDDGSGRTYQLREGSNIIGRGQDAQFRLPDTGVSARHLEIRWDGQVALLADLNSTNGTTVNNAPVQEWQLADGDVIRLGHSEIIVR

Target: T1, phosphorylated Mt-MviN KHD 681-963 (M. tuberculosis, UniProt P9WJK2 681-963, phosphothreonine at 947)
T1 sequence: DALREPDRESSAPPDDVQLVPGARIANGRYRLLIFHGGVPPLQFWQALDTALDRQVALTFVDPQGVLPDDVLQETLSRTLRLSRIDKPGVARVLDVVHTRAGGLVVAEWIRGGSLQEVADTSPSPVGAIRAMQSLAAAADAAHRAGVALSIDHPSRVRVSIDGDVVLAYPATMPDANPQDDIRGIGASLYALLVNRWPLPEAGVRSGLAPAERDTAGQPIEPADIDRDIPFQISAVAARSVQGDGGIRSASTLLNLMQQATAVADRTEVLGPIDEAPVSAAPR
Assay: ITC

Row | Binder | binding result | fold reduction of the binding affinity against the wild type [fold]
1 | B1 | binds | 
2 | B2 |  | > 170
3 | B3 |  | 41
